From paper PMC3328272, “HIV-1 Nef interaction influences the ATP-binding site of the Src-family kinase, Hck” (BMC Chemical Biology, 2012)

What was measured:
[1] = molecular target: mouse Hck SH3 domain with High Affinity RT loop (HART) (mouse) (UniProt P08103); experiment: SPR
[2] = molecular target: wild-type human Hck SH3 domain (human) (UniProt P08631); experiment: SPR
[3] = molecular target: wild-type mouse Hck SH3 domain (mouse) (UniProt P08103); experiment: SPR
[4] = molecular target: mouse Hck SH3 domain with High Affinity RT loop (HART) (mouse) (UniProt P08103); experiment: HDX-MS; SH3 (50 uM) and Nef-Consensus (117 uM) equilibrated at 4 C for at least 110 min in 20 mM Tris-HCl pH 8.3, 100 mM NaCl, 3 mM DTT; 15-fold dilution into D2O buffer; intact-protein MS; SH3 cooperative unfolding rate free and with Nef (slowdown factor)
[5] = molecular target: wild-type mouse Hck SH3 domain (mouse) (UniProt P08103); experiment: as above

Sequence of HIV-1 Nef-SF2, untagged (P03407 whole entry): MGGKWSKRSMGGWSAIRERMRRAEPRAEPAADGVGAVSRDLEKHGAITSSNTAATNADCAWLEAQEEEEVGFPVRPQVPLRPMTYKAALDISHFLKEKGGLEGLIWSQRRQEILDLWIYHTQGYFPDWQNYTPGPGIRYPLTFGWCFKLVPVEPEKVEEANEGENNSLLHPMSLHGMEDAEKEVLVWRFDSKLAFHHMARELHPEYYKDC
Sequence of wild-type mouse Hck SH3 domain (mouse) (P08103 76-136): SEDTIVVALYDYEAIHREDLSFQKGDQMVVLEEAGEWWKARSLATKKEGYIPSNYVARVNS
Sequence of wild-type human Hck SH3 domain (human) (P08631 78-138): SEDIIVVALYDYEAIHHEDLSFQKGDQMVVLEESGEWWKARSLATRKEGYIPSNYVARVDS

Row | Substance | Kd [1] | koff [1] | kon [1] | Kd [2] | koff [2] | kon [2] | Kd [3] | koff [3] | kon [3] | fold decrease in SH3 unfolding rate with Nef (slowdown factor) [4] | fold decrease in SH3 unfolding rate with Nef (slowdown factor) [5]
1 | HIV-1 Nef-Consensus, untagged | 20 nM | 0.0324 s⁻¹ | 1.57e+06 M⁻¹ s⁻¹ | 120 nM | 0.118 s⁻¹ | 1e+06 M⁻¹ s⁻¹ | 80 nM | 0.0185 s⁻¹ | 241000 M⁻¹ s⁻¹ | 50 fold | 5.7 fold
2 | HIV-1 Nef-SF2, untagged (from UniProt P03407) (natural protein) | 10 nM | 0.0143 s⁻¹ | 1.42e+06 M⁻¹ s⁻¹ |  |  |  |  |  |  |  | 
